Test results from publication PMC8242032, “Non-canonical function of DGCR8 in DNA double-strand break repair signaling and tumor radioresistance” (Nature Communications, 2021).

Molecular target: T1, MBP-DGCR8 (human, UniProt Q8WYQ5 1-773)
T1 construct: DGCR8, human, full-length, in an MBP-tagged destination vector; also called purified DGCR8; source: bacterially purified (eluted with maltose)
T1 sequence (looked up): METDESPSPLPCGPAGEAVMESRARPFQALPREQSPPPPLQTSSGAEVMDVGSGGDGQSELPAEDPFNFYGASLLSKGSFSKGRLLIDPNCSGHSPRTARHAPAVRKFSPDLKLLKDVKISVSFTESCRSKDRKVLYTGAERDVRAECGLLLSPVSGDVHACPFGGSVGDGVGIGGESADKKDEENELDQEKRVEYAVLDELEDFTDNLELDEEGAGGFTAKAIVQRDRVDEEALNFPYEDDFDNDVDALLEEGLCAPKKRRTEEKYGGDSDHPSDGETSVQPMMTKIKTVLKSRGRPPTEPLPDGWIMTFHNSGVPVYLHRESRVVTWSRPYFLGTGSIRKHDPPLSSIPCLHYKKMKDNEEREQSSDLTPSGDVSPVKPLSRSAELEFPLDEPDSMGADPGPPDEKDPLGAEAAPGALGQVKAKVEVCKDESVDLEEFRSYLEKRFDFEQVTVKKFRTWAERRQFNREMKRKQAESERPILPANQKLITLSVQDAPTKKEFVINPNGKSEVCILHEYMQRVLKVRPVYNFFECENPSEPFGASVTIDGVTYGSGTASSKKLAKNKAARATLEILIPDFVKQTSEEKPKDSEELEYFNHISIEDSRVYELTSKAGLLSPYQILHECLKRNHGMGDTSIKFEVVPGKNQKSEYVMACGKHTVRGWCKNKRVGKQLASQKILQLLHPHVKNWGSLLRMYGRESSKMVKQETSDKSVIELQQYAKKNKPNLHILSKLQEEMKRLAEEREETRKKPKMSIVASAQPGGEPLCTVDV
Experiment: pull-down; SFB-USP51 (or SFB-GFP) purified from transfected HEK293T cells, retained on S-protein beads and incubated with purified MBP-DGCR8, 4 °C overnight; washed with NETN buffer
Conditions: both partners purified

binding result: binds
B1: SFB-USP51 (enzyme, human, UniProt Q70EK9 1-711, looked up)
chain: MAQVRETSLPSGSGVRWISGGGGGASPEEAVEKAGKMEEAAAGATKASSRREAEEMKLEPLQEREPAPEENLTWSSSGGDEKVLPSIPLRCHSSSSPVCPRRKPRPRPQPRARSRSQPGLSAPPPPPARPPPPPPPPPPPAPRPRAWRGSRRRSRPGSRPQTRRSCSGDLDGSGDPGGLGDWLLEVEFGQGPTGCSHVESFKVGKNWQKNLRLIYQRFVWSGTPETRKRKAKSCICHVCSTHMNRLHSCLSCVFFGCFTEKHIHKHAETKQHHLAVDLYHGVIYCFMCKDYVYDKDIEQIAKETKEKILRLLTSTSTDVSHQQFMTSGFEDKQSTCETKEQEPKLVKPKKKRRKKSVYTVGLRGLINLGNTCFMNCIVQALTHIPLLKDFFLSDKHKCIMTSPSLCLVCEMSSLFHAMYSGSRTPHIPYKLLHLIWIHAEHLAGYRQQDAHEFLIAILDVLHRHSKDDSGGQEANNPNCCNCIIDQIFTGGLQSDVTCQACHSVSTTIDPCWDISLDLPGSCATFDSQNPERADSTVSRDDHIPGIPSLTDCLQWFTRPEHLGSSAKIKCNSCQSYQESTKQLTMKKLPIVACFHLKRFEHVGKQRRKINTFISFPLELDMTPFLASTKESRMKEGQPPTDCVPNENKYSLFAVINHHGTLESGHYTSFIRQQKDQWFSCDDAIITKATIEDLLYSEGYLLFYHKQGLEKD
notes: USP51, human DUB ORF in the pBabe-SFB vector; also called SFB-tagged USP51; source: HEK293T, transfected, in lysate; purified from transfected HEK293T cells
